What all share (test): ELISA, coated antigen, antibody at 10000 ng/ml
Experiment [1] concerns the target T1, recombinant human Nectin-4 protein (human, UniProt Q96NY8 32-349).
T1 construct: Prepared in-house (Jiangsu Mabwell) by transient transfection of CHO cells; also called PVRL-4; PRR-4
T1 sequence: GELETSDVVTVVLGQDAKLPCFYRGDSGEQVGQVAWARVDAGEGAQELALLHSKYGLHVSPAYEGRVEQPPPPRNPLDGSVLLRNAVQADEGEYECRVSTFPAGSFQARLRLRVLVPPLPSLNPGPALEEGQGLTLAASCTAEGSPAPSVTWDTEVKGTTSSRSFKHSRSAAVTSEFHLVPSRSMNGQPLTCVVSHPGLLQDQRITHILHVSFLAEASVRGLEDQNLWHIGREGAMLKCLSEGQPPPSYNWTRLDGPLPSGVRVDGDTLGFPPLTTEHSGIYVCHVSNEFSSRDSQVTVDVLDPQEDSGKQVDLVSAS
Here is the method:
(§1) Coating: Nectin-1, Nectin-2, Nectin-3, Nectin-4, Nectin-like-1, Nectin-like-2, Nectin-like-3, Nectin-like-4, and Nectin-like-5 were diluted to 5 μg/ml in coating buffer (carbonate buffer, pH 9.6) respectively. A 96-well plate was coat with 100 μl per well and incubated overnight at 2-8° C.;
(§2) Sample loading: The plate was taken out, patted dry, and washed twice with 200 μl/well of PBST, then patted dry. The Nectin-4 antibodies prepared in Example 1 (antibody MM11, antibody R012, and antibody R036) were diluted with 1% BSA/PBST to concentrations of 10 μg/ml, 1 μg/ml, 100 ng/ml, and 10 ng/ml, respectively. 1% BSA/PBST solution for dilution was set as a blank control. 100 μl per well was added to the 96-well plate, and incubated at room temperature for 2 hours;
(§3) Reaction termination and plate reading: 100 μl/well of 1 mol/L H3PO4 was added to terminate the reaction and the plated was read. The absorbances of wells in the plate at 450 nm with 650 nm as reference wavelength were read and recorded as OD_{450 nm-650 nm}.

Another experiment addresses T2, Nectin-3 (UniProt Q9NQS3 58-404, limits assumed).
T2 construct: Bought recombinant protein; also called CD113; PVRL-3
As to the method: as §1, §2, §3

Another experiment addresses T3, Nectin-2 (UniProt Q92692 32-360, limits assumed).
T3 construct: Bought recombinant protein; also called CD112; PVRL-2
T3 sequence (looked up): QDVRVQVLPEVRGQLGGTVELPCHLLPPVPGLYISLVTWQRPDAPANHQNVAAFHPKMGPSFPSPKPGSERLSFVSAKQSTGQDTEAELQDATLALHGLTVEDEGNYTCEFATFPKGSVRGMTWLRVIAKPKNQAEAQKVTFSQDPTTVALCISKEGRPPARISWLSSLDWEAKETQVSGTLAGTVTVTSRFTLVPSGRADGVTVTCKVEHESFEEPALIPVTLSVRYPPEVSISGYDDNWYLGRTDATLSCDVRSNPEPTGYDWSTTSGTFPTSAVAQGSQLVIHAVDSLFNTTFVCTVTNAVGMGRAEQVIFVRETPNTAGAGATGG
As to the method: as §1, §2, §3

In a further experiment the target is T4, Nectin-like-2 (UniProt Q9BY67 45-374, limits assumed).
T4 construct: Bought recombinant protein; also called CADM1; IgSF4
T4 sequence (looked up): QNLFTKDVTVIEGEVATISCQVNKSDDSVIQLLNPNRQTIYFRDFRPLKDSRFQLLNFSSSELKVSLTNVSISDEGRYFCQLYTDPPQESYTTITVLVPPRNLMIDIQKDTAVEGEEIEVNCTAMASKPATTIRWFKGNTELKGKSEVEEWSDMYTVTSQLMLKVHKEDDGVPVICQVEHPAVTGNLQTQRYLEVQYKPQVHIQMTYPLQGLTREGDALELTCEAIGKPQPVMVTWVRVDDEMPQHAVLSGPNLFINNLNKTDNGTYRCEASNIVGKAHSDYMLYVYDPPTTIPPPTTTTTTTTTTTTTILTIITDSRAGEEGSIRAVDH
As to the method:
as §1, §2, §3

The next experiment has as its target T5, Nectin-like-3 (UniProt Q8N3J6 25-367, limits assumed).
T5 construct: Bought recombinant protein; also called CADM2; IgSF4D
T5 sequence (looked up): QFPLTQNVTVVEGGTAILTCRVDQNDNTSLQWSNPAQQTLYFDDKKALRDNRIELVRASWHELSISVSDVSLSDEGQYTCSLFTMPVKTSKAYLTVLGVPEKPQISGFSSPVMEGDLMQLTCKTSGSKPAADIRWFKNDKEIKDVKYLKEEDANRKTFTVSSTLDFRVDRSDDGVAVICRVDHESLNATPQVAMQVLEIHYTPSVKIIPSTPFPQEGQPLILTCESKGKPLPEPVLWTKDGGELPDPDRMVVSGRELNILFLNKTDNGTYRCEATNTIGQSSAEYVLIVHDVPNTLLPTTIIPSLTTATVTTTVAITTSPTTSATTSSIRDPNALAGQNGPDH
As to the method: as §1, §2, §3

The target in the next experiment is T6, Nectin-like-5 (UniProt P15151 21-343).
T6 construct: Bought recombinant protein; also called CD155; PVR
T6 sequence (looked up): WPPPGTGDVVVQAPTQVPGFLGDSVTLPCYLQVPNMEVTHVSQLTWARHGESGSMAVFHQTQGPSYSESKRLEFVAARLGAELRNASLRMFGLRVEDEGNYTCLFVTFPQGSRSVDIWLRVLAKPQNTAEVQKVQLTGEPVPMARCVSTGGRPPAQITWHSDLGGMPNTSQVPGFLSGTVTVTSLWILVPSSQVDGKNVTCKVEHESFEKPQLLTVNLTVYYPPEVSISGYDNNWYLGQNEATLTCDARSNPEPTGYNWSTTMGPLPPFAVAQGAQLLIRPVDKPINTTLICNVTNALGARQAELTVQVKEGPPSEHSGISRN
Here is the method:
as §1, §2, §3

Another experiment concerns the target T7, Nectin-like-1 (UniProt Q8N126 25-330, limits assumed).
T7 construct: Bought recombinant protein; also called CADM3; IgSF4B
T7 sequence (looked up): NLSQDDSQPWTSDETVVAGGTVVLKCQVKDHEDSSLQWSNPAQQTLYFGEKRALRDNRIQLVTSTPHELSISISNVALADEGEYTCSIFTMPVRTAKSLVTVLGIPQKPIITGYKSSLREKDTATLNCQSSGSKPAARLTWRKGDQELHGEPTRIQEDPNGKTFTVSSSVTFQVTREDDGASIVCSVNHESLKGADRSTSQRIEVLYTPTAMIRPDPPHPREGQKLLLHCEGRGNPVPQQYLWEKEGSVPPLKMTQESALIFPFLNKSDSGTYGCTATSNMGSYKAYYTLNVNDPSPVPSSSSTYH
Here is the method: as §1, §2, §3

T2 sequence (Q9NQS3 58-404 limits assumed): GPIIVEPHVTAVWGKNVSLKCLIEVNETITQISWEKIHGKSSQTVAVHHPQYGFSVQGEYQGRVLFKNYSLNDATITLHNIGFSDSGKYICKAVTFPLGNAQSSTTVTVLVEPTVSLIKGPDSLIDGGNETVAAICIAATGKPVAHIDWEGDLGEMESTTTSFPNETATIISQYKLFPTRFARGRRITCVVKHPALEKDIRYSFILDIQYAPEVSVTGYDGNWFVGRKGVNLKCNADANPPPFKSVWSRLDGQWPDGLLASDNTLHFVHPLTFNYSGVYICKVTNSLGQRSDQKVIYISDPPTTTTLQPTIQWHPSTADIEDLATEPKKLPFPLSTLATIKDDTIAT

B1: Antibody MM11 (antibody, mouse IgG1, kappa, V domains shown)
VH: DVQLQESGPGLVKPSQSLSLTCSVTGYSITSNFYWNWIRQFPGNRLEWMGYISYDGSNNYNPSLKNRISISRDTSKNQFFLKLNSVTTEDTATYYCVRADYWGQGTLVTVSA
VL: DTVMTQTPLSLPVSLGDQASISCRSSQSLESSDGHAYLNWYLQKPGQSPQLLIYRVSNRFSGVLHRFSGSGSGTDFTLKISRVEAEDLGVYFCLQFTHVPFTFGSGTKLEIKR
notes: Mouse monoclonal antibody from hybridoma; also called Nectin-4 mouse monoclonal antibody MM11; mouse antibody MM11
Regarding B1, the OD detection value in experiment [1] stood at 1.97 OD450 nm-650 nm; with Nectin-3 it was 0.006 OD450 nm-650 nm; with Nectin-2 it was 0.017 OD450 nm-650 nm; with Nectin-like-2 it was 0.005 OD450 nm-650 nm; with Nectin-like-3, 0.032 OD450 nm-650 nm; with Nectin-like-5, 0.008 OD450 nm-650 nm. The OD detection value with Nectin-like-1 amounted to 0.012 OD450 nm-650 nm.

B2: Antibody R012 (antibody, V domains shown)
VH: SKSVEESGGRLVTPGTPLTLTCTVSGFSLSTYAMSWVRQAPGKGLEYIGIISGRGTTYYASWLKGRFTISKTSTTVDLKITSPTTEDTATYFCARDAGISDVYTGYFNLWGQGTLVTVSS
VL: QPVLAQLPSASAALGASAKLTCTLSSAHRTYTIAWYQQQQGEAPRYLMMLKSDGSYTKGTGVPDRFSGSSSGADRYLIISSVQAADEADYYCGADDSGGYVFGGGTQLTVTG
notes: Rabbit monoclonal antibody from phage display; also called Nectin-4 rabbit monoclonal antibody R012; rabbit antibody R012
For B2, the OD detection value was 1.51 OD450 nm-650 nm in experiment [1]; 0.007 OD450 nm-650 nm in the experiment with Nectin-3; 0.008 OD450 nm-650 nm with Nectin-2; 0.009 OD450 nm-650 nm with Nectin-like-2; 0.009 OD450 nm-650 nm with Nectin-like-3; 0.008 OD450 nm-650 nm in the experiment with Nectin-like-5. In the experiment with Nectin-like-1, this molecule showed an OD detection value of 0.009 OD450 nm-650 nm.

B3: Antibody R036 (antibody, V domains shown)
VH: SQSVEESGGRLVTPGTPLTLTCTVSGFSLSSYAMSWVRQAPGKGLEYIGIIGGRGTTYYAIWAKGRFTISKTSTTVDLKITSPTTEDTATYFCARDAGTTYVGTTYVATGYFNLWGQGTLVTVSS
VL: QPVLTQPPSASAALGASAKLTCTLSSAHKTYTIAWYQQQQGEAPRYLMILKSDGSYTRGTGVPDRFSGSSSGADRYLIISSVQADDEADYYCGADDSGGYVFGGGTQLTVTG
notes: Rabbit monoclonal antibody from phage display; also called Nectin-4 rabbit monoclonal antibody R036; rabbit antibody R036
Consider B3, for which the OD detection value is 1.63 OD450 nm-650 nm in experiment [1]; 0.008 OD450 nm-650 nm with Nectin-3; 0.007 OD450 nm-650 nm with Nectin-2; 0.008 OD450 nm-650 nm with Nectin-like-2; 0.008 OD450 nm-650 nm with Nectin-like-3; 0.009 OD450 nm-650 nm with Nectin-like-5. Further, the OD detection value with Nectin-like-1 was found to be 0.008 OD450 nm-650 nm.

The record behind these values is patent US20260265354A1 (JIANGSU MABWELL HEALTH PHARMACEUTICAL R AND D, published 2026).
